According to the supplement of paper PMC10598134:
± gives the standard deviation.

Assay: collision cross section of modified peptide (TIMS, N2, iRT-aligned); higher = larger / more extended gas-phase ion
In short: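 Collision cross section values rest on the Mason-Schamp equation applied to calibrated, run-aligned mobility data from synthetic peptides. Mobility (1/K0) was calibrated with three reference ions and aligned per run to the median iRT peptide deviation, and 1–3 technical replicates of the most abundant feature per charge state were averaged. Data came from a timsTOF Pro/HT in dda-PASEF mode (nitrogen, ~2.4 mbar) after a 120-min nanoflow C18 gradient at 60 °C.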

[1] = charge state: 3, modification: Methyl (R)
[2] = charge state: 2, modification: Acetyl (K)
[3] = charge state: 3, modification: Acetyl (K)
[4] = charge state: 2, modification: Butyryl
[5] = charge state: 3, modification: Butyryl
[6] = charge state: 3, modification: Crotonyl
[7] = charge state: 3, modification: Dimethyl (K)
[8] = charge state: 2, modification: Formyl
[9] = charge state: 3, modification: Formyl
[10] = charge state: 2, modification: Glutarylation
[11] = charge state: 3, modification: Glutarylation
[12] = charge state: 3, modification: GlyGly (K)
[13] = charge state: 2, modification: Methyl (K)
[14] = charge state: 3, modification: Methyl (K)
[15] = charge state: 2, modification: Succinyl
[16] = charge state: 3, modification: Succinyl
[17] = charge state: 3, modification: Trimethyl (K)
[18] = charge state: 2, modification: hydroxyisobutyryl
[19] = charge state: 3, modification: hydroxyisobutyryl
[20] = charge state: 2, modification: HexNAc (ST)
[21] = charge state: 2, modification: Nitro (Y)
[22] = charge state: 2, modification: Phospho (Y)
[23] = charge state: 3, modification: HexNAc (ST)
[24] = charge state: 2, modification: Crotonyl
[25] = charge state: 2, modification: GlyGly (K)
[26] = charge state: 2, modification: Malonyl
[27] = charge state: 2, modification: Trimethyl (K)
[28] = charge state: 2, modification: Hydroxyproline
[29] = charge state: 3, modification: Hydroxyproline
[30] = charge state: 2, modification: Citrullination (R)
[31] = charge state: 2, modification: Methyl (R)

In the case of “FGSRGGPGGGFR [_FGSR(Methyl (R))GGPGGGFR_]”, the collision cross section [1] is reported as 435.83 ± 3.2 Å².
With “FGTINIVHPKLGSYTK [_FGTINIVHPK(Acetyl (K))LGSYTK_]” the collision cross section [2] was 467.42 ± 3.8 Å² and the collision cross section [3] was 551.28 ± 1.6 Å².
In the case of “FGTINIVHPKLGSYTK [_FGTINIVHPK(Butyryl)LGSYTK_]”, the collision cross section [4] is reported as 477.38 ± 1.1 Å² and the collision cross section [5] is reported as 553.18 ± 2.9 Å².
With “FGTINIVHPKLGSYTK [_FGTINIVHPK(Crotonyl)LGSYTK_]” the collision cross section [6] was 553.88 ± 2 Å².
For “FGTINIVHPKLGSYTK [_FGTINIVHPK(Dimethyl (K))LGSYTK_]”, the collision cross section [7] was 520.37 ± 1.2 Å².
“FGTINIVHPKLGSYTK [_FGTINIVHPK(Formyl)LGSYTK_]” gave a collision cross section [8] of 468.22 ± 1.4 Å² and a collision cross section [9] of 546.15 ± 1.5 Å².
Substance “FGTINIVHPKLGSYTK [_FGTINIVHPK(Gluratylation)LGSYTK_]” has a collision cross section [10] of 478.34 Å² and a collision cross section [11] of 554.9 ± 0.14 Å².
“FGTINIVHPKLGSYTK [_FGTINIVHPK(GlyGly (K))LGSYTK_]” gave a collision cross section [12] of 511.55 ± 1.9 Å².
“FGTINIVHPKLGSYTK [_FGTINIVHPK(Methyl (K))LGSYTK_]” gave a collision cross section [13] of 470.37 Å² and a collision cross section [14] of 541.06 ± 0.45 Å².
“FGTINIVHPKLGSYTK [_FGTINIVHPK(Succinyl)LGSYTK_]” showed a collision cross section [15] of 474.47 ± 1.3 Å² and a collision cross section [16] of 560.66 ± 0.77 Å².
“FGTINIVHPKLGSYTK [_FGTINIVHPK(Trimethyl (K))LGSYTK_]” showed a collision cross section [17] of 502.05 ± 2.2 Å².
“FGTINIVHPKLGSYTK [_FGTINIVHPK(hydroxyisobutyryl)LGSYTK_]” gave a collision cross section [18] of 477.53 ± 1.6 Å² and a collision cross section [19] of 560.61 ± 2.1 Å².
“FGVEAFSDCLR [_FGVEAFS(HexNAc (ST))DCLR_]” showed a collision cross section [20] of 398.33 ± 0.63 Å².
With “FGYVDFESAEDLEK [_FGY(Nitro (Y))VDFESAEDLEK_]” the collision cross section [21] was 424.66 Å².
For FHYQDQEFLK [_FHY(Nitro (Y))QDQEFLK_], the collision cross section [21] was 402.47 ± 0.18 Å² and the collision cross section (charge state: 3, modification: Nitro (Y)) was 452.15 ± 1.1 Å².
Substance FHYQDQEFLK [_FHY(Phospho (Y))QDQEFLK_] has a collision cross section [22] of 397.81 ± 0.64 Å² and a collision cross section (charge state: 3, modification: Phospho (Y)) of 447.23 ± 0.12 Å².
In the case of “FIHQQPQSSSPVYGSSAK [_FIHQQPQSSSPVYGS(HexNAc (ST))SAK_]”, the collision cross section [23] is reported as 528.58 ± 0.18 Å².
“FLQEFYQDDELGK [_FLQEFY(Nitro (Y))QDDELGK_]” gave a collision cross section [21] of 428.07 ± 1.5 Å².
In the case of “FLQEFYQDDELGKK [_FLQEFYQDDELGK(Acetyl (K))K_]”, the collision cross section [2] is reported as 444.35 ± 1.6 Å² and the collision cross section [3] is reported as 501.5 ± 0.084 Å².
For “FLQEFYQDDELGKK [_FLQEFYQDDELGK(Butyryl)K_]”, the collision cross section [4] was 451.46 ± 0.51 Å² and the collision cross section [5] was 506.1 Å².
“FLQEFYQDDELGKK [_FLQEFYQDDELGK(Crotonyl)K_]” showed a collision cross section [24] of 450.33 ± 0.0083 Å².
For “FLQEFYQDDELGKK [_FLQEFYQDDELGK(Dimethyl (K))K_]”, the collision cross section (charge state: 2, modification: Dimethyl (K)) was 456.43 ± 1.8 Å² and the collision cross section [7] was 499.62 ± 0.75 Å².
Substance “FLQEFYQDDELGKK [_FLQEFYQDDELGK(Formyl)K_]” has a collision cross section [8] of 444.03 ± 0.77 Å².
Substance “FLQEFYQDDELGKK [_FLQEFYQDDELGK(Gluratylation)K_]” has a collision cross section [10] of 453.64 ± 1.5 Å² and a collision cross section [11] of 517.26 Å².
Substance “FLQEFYQDDELGKK [_FLQEFYQDDELGK(GlyGly (K))K_]” has a collision cross section [25] of 460.97 ± 1.6 Å² and a collision cross section [12] of 512.67 ± 1.3 Å².
Substance “FLQEFYQDDELGKK [_FLQEFYQDDELGK(Malonyl)K_]” has a collision cross section [26] of 451.48 ± 0.99 Å².
“FLQEFYQDDELGKK [_FLQEFYQDDELGK(Methyl (K))K_]” gave a collision cross section [13] of 445.9 ± 2.4 Å² and a collision cross section [14] of 499.81 ± 3 Å².
“FLQEFYQDDELGKK [_FLQEFYQDDELGK(Succinyl)K_]” gave a collision cross section [15] of 450.32 ± 0.96 Å².
For “FLQEFYQDDELGKK [_FLQEFYQDDELGK(Trimethyl (K))K_]”, the collision cross section [27] was 464.1 ± 0.55 Å² and the collision cross section [17] was 508.12 ± 1.8 Å².
For “FLQEFYQDDELGKK [_FLQEFYQDDELGK(hydroxyisobutyryl)K_]”, the collision cross section [18] was 452.81 ± 0.81 Å² and the collision cross section [19] was 512.84 ± 1.6 Å².
For “FNALFAQGNYSEAAK [_FNALFAQGNY(Nitro (Y))SEAAK_]”, the collision cross section [21] was 433.45 ± 0.55 Å².
In the case of “FNALFAQGNYSEAAK [_FNALFAQGNY(Phospho (Y))SEAAK_]”, the collision cross section [22] is reported as 426.34 ± 0.64 Å².
In the case of “FPGVGVLPGVPTGAGVK [_FPGVGVLP(Hydroxyproline)GVPTGAGVK_]”, the collision cross section [28] is reported as 432.68 ± 8.7 Å² and the collision cross section [29] is reported as 504.05 ± 5.9 Å².
Substance “FPGVGVLPGVPTGAGVKPK [_FPGVGVLPGVPTGAGVKP(Hydroxyproline)K_]” has a collision cross section [28] of 440.08 ± 1.4 Å² and a collision cross section [29] of 556.97 ± 11 Å².
With FRSGNYR [_FR(Citrullination (R))SGNYR_] the collision cross section [30] was 327.94 ± 2.8 Å².
In the case of FRSGNYR [_FR(Methyl (R))SGNYR_], the collision cross section [31] is reported as 333.09 ± 1 Å² and the collision cross section [1] is reported as 399.51 ± 0.82 Å².
“FSAYIKNSNPALNDNLEK [_FSAYIK(Acetyl (K))NSNPALNDNLEK_]” showed a collision cross section [2] of 479.82 ± 3 Å² and a collision cross section [3] of 541.74 Å².
With “FSAYIKNSNPALNDNLEK [_FSAYIK(Biotin)NSNPALNDNLEK_]” the collision cross section (charge state: 2, modification: Biotin) was 499.7 ± 0.61 Å² and the collision cross section (charge state: 3, modification: Biotin) was 526.24 Å².
“FSAYIKNSNPALNDNLEK [_FSAYIK(Butyryl)NSNPALNDNLEK_]” gave a collision cross section [4] of 487.55 ± 1 Å² and a collision cross section [5] of 548.32 ± 1.1 Å².
In the case of “FSAYIKNSNPALNDNLEK [_FSAYIK(Crotonyl)NSNPALNDNLEK_]”, the collision cross section [24] is reported as 486.61 ± 2.3 Å².
Work on “FSAYIKNSNPALNDNLEK [_FSAYIK(Dimethyl (K))NSNPALNDNLEK_]” yielded a collision cross section [7] of 510.58 ± 2.9 Å².
Work on “FSAYIKNSNPALNDNLEK [_FSAYIK(Formyl)NSNPALNDNLEK_]” yielded a collision cross section [8] of 479.47 ± 1.3 Å² and a collision cross section [9] of 528.92 ± 9.9 Å².
With “FSAYIKNSNPALNDNLEK [_FSAYIK(Gluratylation)NSNPALNDNLEK_]” the collision cross section [10] was 487.96 ± 2 Å² and the collision cross section [11] was 547.09 ± 1.3 Å².
With “FSAYIKNSNPALNDNLEK [_FSAYIK(GlyGly (K))NSNPALNDNLEK_]” the collision cross section [25] was 506.19 ± 1.5 Å² and the collision cross section [12] was 530.18 ± 11 Å².
Substance “FSAYIKNSNPALNDNLEK [_FSAYIK(Malonyl)NSNPALNDNLEK_]” has a collision cross section [26] of 479.79 ± 4.5 Å² and a collision cross section (charge state: 3, modification: Malonyl) of 527.7 ± 2.3 Å².
Substance “FSAYIKNSNPALNDNLEK [_FSAYIK(Methyl (K))NSNPALNDNLEK_]” has a collision cross section [13] of 493.27 Å² and a collision cross section [14] of 508.45 ± 2.8 Å².
In the case of “FSAYIKNSNPALNDNLEK [_FSAYIK(Succinyl)NSNPALNDNLEK_]”, the collision cross section [15] is reported as 492.09 ± 3.4 Å² and the collision cross section [16] is reported as 527.54 ± 2 Å².
For “FSAYIKNSNPALNDNLEK [_FSAYIK(Trimethyl (K))NSNPALNDNLEK_]”, the collision cross section [17] was 516.88 ± 0.87 Å².
Work on “FSAYIKNSNPALNDNLEK [_FSAYIK(hydroxyisobutyryl)NSNPALNDNLEK_]” yielded a collision cross section [18] of 489.27 ± 0.86 Å² and a collision cross section [19] of 551.92 ± 1.1 Å².
Substance “FSHSVQNSERGK [_FSHSVQNSER(Citrullination (R))GK_]” has a collision cross section [30] of 390.38 ± 0.44 Å² and a collision cross section (charge state: 3, modification: Citrullination (R)) of 441.33 ± 1.8 Å².
“FSHSVQNSERGK [_FSHSVQNSER(Methyl (R))GK_]” showed a collision cross section [31] of 405.91 ± 1.3 Å² and a collision cross section [1] of 465.06 ± 2.1 Å².
For “FSPPSSSLQPGK [_FSPPSSS(HexNAc (ST))LQPGK_]”, the collision cross section [20] was 396.47 ± 1.2 Å².
With “FSYTSQHSDYGQR [_FS(HexNAc (ST))YTSQHSDYGQR_]” the collision cross section [23] was 502.75 ± 0.96 Å².
With FTEYETQVK [_FTEY(Nitro (Y))ETQVK_] the collision cross section [21] was 363.94 ± 0.94 Å².
Work on FTEYETQVK [_FTEY(Phospho (Y))ETQVK_] yielded a collision cross section [22] of 359.15 ± 0.75 Å².
Work on “FVDSKVGEFSGANK [_FVDSK(Formyl)VGEFSGANK_]” yielded a collision cross section [8] of 406.35 Å².
For “FVDSKVGEFSGANK [_FVDSK(Gluratylation)VGEFSGANK_]”, the collision cross section [10] was 419.09 Å².
“FVDSKVGEFSGANK [_FVDSK(Methyl (K))VGEFSGANK_]” showed a collision cross section [13] of 434.66 Å².
“FVDSKVGEFSGANK [_FVDSK(Trimethyl (K))VGEFSGANK_]” gave a collision cross section [27] of 432.92 Å².
For FYTEDSPGLK [_FY(Nitro (Y))TEDSPGLK_], the collision cross section [21] was 356.24 ± 0.17 Å².
With FYTEDSPGLK [_FY(Phospho (Y))TEDSPGLK_] the collision cross section [22] was 366.92 ± 0.064 Å².
In the case of “GADFLVTEVENGGSLGSKK [_GADFLVTEVENGGSLGSK(Acetyl (K))K_]”, the collision cross section [2] is reported as 465.51 Å² and the collision cross section [3] is reported as 541.97 Å².
Substance “GADFLVTEVENGGSLGSKK [_GADFLVTEVENGGSLGSK(Butyryl)K_]” has a collision cross section [4] of 476.08 ± 1.1 Å² and a collision cross section [5] of 551.35 Å².
Substance “GADFLVTEVENGGSLGSKK [_GADFLVTEVENGGSLGSK(Crotonyl)K_]” has a collision cross section [24] of 475.14 ± 1.9 Å² and a collision cross section [6] of 548.96 Å².
